# In PMC8362221:
# Molecular target: Idelvion (commercial albumin-fused factor IX) (human) (UniProt P02768)
# Experiment: SPR
substance,measurement,value
"soluble monomeric human neonatal Fc receptor, His-tagged (hFcRn‐His) (from UniProt P55899;P61769)",Kd,150 nM
